Data: publication PMC10584365 (Nature, 2023)
Values joined by “and” are separate entries in the source; they are usually repeats but may differ in a detail not shown here. Equal values may be shown once.

B1: full-length human TRPV3 channel (expressed in P. pastoris) (natural protein, UniProt Q8NET8 1-790, looked up)
chain: MKAHPKEMVPLMGKRVAAPSGNPAILPEKRPAEITPTKKSAHFFLEIEGFEPNPTVAKTSPPVFSKPMDSNIRQCISGNCDDMDSPQSPQDDVTETPSNPNSPSAQLAKEEQRRKKRRLKKRIFAAVSEGCVEELVELLVELQELCRRRHDEDVPDFLMHKLTASDTGKTCLMKALLNINPNTKEIVRILLAFAEENDILGRFINAEYTEEAYEGQTALNIAIERRQGDIAALLIAAGADVNAHAKGAFFNPKYQHEGFYFGETPLALAACTNQPEIVQLLMEHEQTDITSRDSRGNNILHALVTVAEDFKTQNDFVKRMYDMILLRSGNWELETTRNNDGLTPLQLAAKMGKAEILKYILSREIKEKRLRSLSRKFTDWAYGPVSSSLYDLTNVDTTTDNSVLEITVYNTNIDNRHEMLTLEPLHTLLHMKWKKFAKHMFFLSFCFYFFYNITLTLVSYYRPREEEAIPHPLALTHKMGWLQLLGRMFVLIWAMCISVKEGIAIFLLRPSDLQSILSDAWFHFVFFIQAVLVILSVFLYLFAYKEYLACLVLAMALGWANMLYYTRGFQSMGMYSVMIQKVILHDVLKFLFVYIVFLLGFGVALASLIEKCPKDNKDCSSYGSFSDAVLELFKLTIGLGDLNIQQNSKYPILFLFLLITYVILTFVLLLNMLIALMGETVENVSKESERIWRLQRARTILEFEKMLPEWLRSRFRMGELCKVAEDDFRLCLRINEVKWTEWKTHVSFLNEDPGPVRRTDFNKIQDSSRNNSKTTLNAFEEVEEFPETSV
B2: full-length human TRPV3 (expressed in HEK293S GnTI- cells) (natural protein, UniProt Q8NET8 1-790, looked up)
chain: B1 chain

Molecular target: the molecule itself
Experiment: high-speed atomic force microscopy

| Protein | stoichiometry N |
| --- | --- |
| B1 | 4 and 5 |
| B2 | 3 and 2 |
